These results are taken from US20250002593A1.

Sequences and labels used below:
B1: ANB019 (antibody, V domains shown)
VH: QVQLVQSGAEVKKPGASVKVSCKASGYTFTNYWMNWVRQAPRQGLEWMGMFHPTGDVTRLNQKFKDRVTMTRDTSTSTVYMELSSLRSEDTAVYYCARTTSMIIGGFAYWGQGTLVTVSS
VL: DIVMTQTPLSLSVTPGQPASISCRSSKSLLHRNAITYFYWYLHKPGQPPQLLIYQMSNLASGVPDRFSGSGSGTDFTLKISRVEAEDVGVYYCAQNLELPLTFGGGTKVEIK
B2: REGN14 (antibody, V domains shown)
VH: EVQLVESGGDLVQPGRSLRLSCAASGFTFDDYAMHWVRQAPGKGLEWVSVISWNSDVIAYSDSVKGRFTISRDNAKNSLYLQMNSLRTEDTALYYCTKGHKWSFFDYWGQGTLVTVSS
VL: EIVLTQSPATLSLSPGERATLSCRASQSISSYLAWYQQKPGQAPRLLIFNVANRATDIPARFSGSGSGTDFTLTISSLEPEDFAVYYCQQRSNWPLTFGGGTKVEIK
B3: BI655130 (antibody, V domains shown)
VH: QVQLVQSGAEVKKPGASVKVSCKASGYSFTSSWIHWVKQAPGQGLEWMGEINPGNVRTNYNENFRNKVTMTVDTSISTAYMELSRLRSDDTAVYYCTVVFYGEPYFPYWGQGTLVTVSS
VL: QIVLTQSPGTLSLSPGERATMTCTASSSVSSSYFHWYQQKPGQAPRLWIYRTSRLASGVPDRFSGSGSGTDFTLTISRLEPEDAATYYCHQFHRSPLTFGAGTKLEIK

For the assay, the target named is membrane cyno IL-36R (cynomolgus). Put plainly: binding to cynomolgus IL-36R; the legend and Example 8 say membrane cyno IL-36R on transfected HEK293 cells by FACS, but the y axis on the sheet is OD450 nm; unit taken from the x axis. For orientation: A flow cytometer gives signals particle by particle.
As a reminder, the EC50 is the concentration needed to bring the measured effect to its halfway point. A lower EC50 goes with a more potent agent. In the case of B1, the EC50 came out at 0.0132 µg/mL.

As to B2, the EC50 was 0.0059 µg/mL. This EC50 lies about 2.2-fold lower than the previous one.

B3 yielded an EC50 of 0.196 µg/mL.
